Data: patent US6670167

Tested on: T1, Syntide-2, synthetic substrate peptide PLARTLSVAGLPGKK
T1 sequence: PLARTLSVAGLPGKK

Proteolytically cleaved Chk1, preparation HA2-022
Activity: +38 fold
Rate/min (/min (at 2 nM enzyme)): 0.0208
activity comparison: the cleaved preparation was 38 fold more active than the non-cleaved preparation
